Laboratory results: patent EP4039268A1 (IMBA-Institut für Molekulare Biotechnologie GmbH, dated 2022)

How the values were obtained:
Assay in all cases: ELISA screen
[1] = target: T1, full-length trimeric SARS-CoV-2 Spike protein (Spike-H6) (SARS-CoV-2, N-glycosylated (22 N-glycosylation sites))
T1 construct: also called trimeric Spike; full-length Spike-H6

[2] = target: T2, monomeric SARS-CoV-2 receptor binding domain (RBD-H6) (SARS-CoV-2, UniProt P0DTC2 319-541)
T2 construct: Made in HEK293-6E cells; also called RBD Spike; monomeric RBD

[3] = target: T3, human recombinant soluble ACE2 (human, UniProt Q9BYF1 18-740)
T3 construct: also called hrsACE2
T3 sequence (Q9BYF1 18-740 limits assumed): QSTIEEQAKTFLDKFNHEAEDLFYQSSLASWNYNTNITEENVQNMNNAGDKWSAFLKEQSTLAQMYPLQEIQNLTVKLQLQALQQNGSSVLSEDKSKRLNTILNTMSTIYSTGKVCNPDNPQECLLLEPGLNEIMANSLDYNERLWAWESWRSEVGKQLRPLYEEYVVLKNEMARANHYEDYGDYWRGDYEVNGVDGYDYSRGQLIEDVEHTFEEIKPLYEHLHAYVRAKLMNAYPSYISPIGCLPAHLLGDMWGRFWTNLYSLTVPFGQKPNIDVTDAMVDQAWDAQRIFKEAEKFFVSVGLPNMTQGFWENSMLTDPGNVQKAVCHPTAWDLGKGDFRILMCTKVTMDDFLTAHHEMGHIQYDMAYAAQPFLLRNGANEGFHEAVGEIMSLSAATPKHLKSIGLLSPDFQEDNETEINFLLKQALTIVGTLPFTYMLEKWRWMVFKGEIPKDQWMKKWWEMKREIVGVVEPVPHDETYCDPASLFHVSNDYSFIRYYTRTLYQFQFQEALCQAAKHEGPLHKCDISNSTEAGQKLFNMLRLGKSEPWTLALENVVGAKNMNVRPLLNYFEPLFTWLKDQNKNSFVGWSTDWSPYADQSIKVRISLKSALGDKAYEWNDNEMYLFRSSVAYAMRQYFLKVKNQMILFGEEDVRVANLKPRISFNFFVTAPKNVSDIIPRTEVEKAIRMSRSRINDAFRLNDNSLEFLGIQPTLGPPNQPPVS

Binder | Mean normalized OD [1] | Mean normalized OD [2] | Mean normalized OD [3]
Mrc2_6 CRD-mouse IgG2a-Fc fusion protein (Fc fusion) FLNKCFRIQGQDPQDRVKWSEAQFSCEQQEAQLVTIANPLEQAFITASLPNVTFDLWIGLHASQRDFQWIEQEPLLYTNWAPGEPSGPSPAPSGTKPTSCAVILHSPSAHFTGRWDDRSCTEETHGFICGGGSGGGSGGGS | 0.011 OD | 0.006 OD | -0.019 OD
Ly75_7 CRD-mouse IgG2a-Fc fusion protein (Fc fusion) YLNNLYKIISKPLTWHGALKECMKEKMRLVSITDPYQQAFLAVQATLRNSSFWIGLSSQDDELNFGWSDGKRLQFSNWAGSNEQLDDCVILDTDGFWKTADCDDNQPGAICYYGGGSGGGSGGGS | 0.001 OD | 0.003 OD | -0.009 OD
Mrc1_3 CRD-mouse IgG2a-Fc fusion protein (Fc fusion) HGFYCYLIGSTLSTFTDANHTCTNEKAYLTTVEDRYEQAFLTSLVGLRPEKYFWTGLSDVQNKGTFRWTVDEQVQFTHWNADMPGRKAGCVAMKTGVAGGLWDVLSCEEKAKFVCKGGGSGGGSGGGS | 0.037 OD | 0.038 OD | -0.064 OD
Mrc1_5 CRD-mouse IgG2a-Fc fusion protein (Fc fusion) YKDYQYYFSKEKETMDNARAFCKKNFGDLATIKSESEKKFLWKYINKNGGQSPYFIGMLISMDKKFIWMDGSKVDFVAWATGEPNFANDDENCVTMYTNSGFWNDINCGYPNNFICQGGGSGGGSGGGS | -0.001 OD | 0 OD | -0.004 OD
Mrc1_6 CRD-mouse IgG2a-Fc fusion protein (Fc fusion) YKNKCFKIFGFANEEKKSWQDARQACKGLKGNLVSIENAQEQAFVTYHMRDSTFNAWTGLNDINAEHMFLWTAGQGVHYTNWGKGYPGGRRSSLSYEDADCVVVIGGNSREAGTWMDDTCDSKQGYICQGGGSGGGSGGGS | 0.004 OD | 0.004 OD | -0.001 OD
Pkd1 CRD-mouse IgG2a-Fc fusion protein (Fc fusion) GNGHCYRLVAEKAPWLQAQEQCRTWAGAALAMVDSPAIQHFLVSKVTRSLDVWIGFSSVEGTEGLDPRGEAFSLESCQNWLPGEPHPATAEHCVRLGPAGQCNTDLCSAPHSYVCEGGGSGGGSGGGS | 0 OD | 0 OD | -0.01 OD
Mrc2_8 CRD-mouse IgG2a-Fc fusion protein (Fc fusion) FREHCYSFHMEVLLGHKEALQRCQKAGGTVLSILDEMENVFVWEHLQTAEAQSRGAWLGMNFNPKGGTLVWQDNTAVNYSNWGPPGLGPSMLSHNSCYWIQSSSGLWRPGACTNITMGVVCGGGSGGGSGGGS | 0 OD | 0.003 OD | -0.001 OD
Cd209e CRD-mouse IgG2a-Fc fusion protein (Fc fusion) FFNGNCYFFSKSQRDWHDSMTACKEMGAQLVIIKSHEEQSFLQQTSKKNSYTWMGLSDLNKEGEWYWLDGSPLSDSFEKYWKKGQPNNVGGQDCVEFRDNGWNDAKCEQRKFWICKGGGSGGGSGGGS | 0.045 OD | 0.048 OD | -0.016 OD
Mrc1_7 CRD-mouse IgG2a-Fc fusion protein (Fc fusion) YGKSSYSLMKLKLPWHEAETYCKDHTSLLASILDPYSNAFAWMKMHPFNVPIWIALNSNLTNNEYTWTDRWRVRYTNWGADEPKLKSACVYMDVDGYWRTSYCNESFYFLCKGGGSGGGSGGGS | -0.002 OD | 0.02 OD | -0.008 OD
Mrc1_8 CRD-mouse IgG2a-Fc fusion protein (Fc fusion) FYGHCYYFESSFTRSWGQASLECLRMGASLVSIETAAESSFLSYRVEPLKSKTNFWIGMFRNVEGKWLWLNDNPVSFVNWKTGDPSGERNDCVVLASSSGLWNNIHCSSYKGFICKGGGSGGGSGGGS | -0.057 OD | 0.019 OD | -0.021 OD
Pla2r1_1 CRD-mouse IgG2a-Fc fusion protein (Fc fusion) SSRICYQFNLLSSLSWNQAHSSCLMQGGALLSIADEDEEDFIRKHLSKVVKEVWIGLNQLDEKAGWQWSDGTPLSYLNWSQEITPGPFVEHHCGTLEVVSAAWRSRDCESTLPYICKGGGSGGGSGGGS | 0 OD | 0 OD | -0.066 OD
Ly75_4 CRD-mouse IgG2a-Fc fusion protein (Fc fusion) SSLSCYKVFHIERIVRKRNWEEAERFCQALGAHLPSFSRREEIKDFVHLLKDQFSGQRWLWIGLNKRSPDLQGSWQWSDRTPVSAVMMEPEFQQDFDIRDCAAIKVLDVPWRRVWHLYEDKDYAYWKPFACDAKLEWVCQGGGSGGGSGGGS | -0.014 OD | 0.007 OD | -0.004 OD
Ly75_9 CRD-mouse IgG2a-Fc fusion protein (Fc fusion) YKDGVYSVIQKKVTWYEALNACSQSGGELASVHNPNGKLFLEDIVNRDGFPLWVGLSSHDGSESSFEWSDGRAFDYVPWQSLQSPGDCVVLYPKGIWRREKCLSVKDGAICYKGGGSGGGSGGGS | 0.001 OD | 0.004 OD | -0.014 OD
Pla2r1_8 CRD-mouse IgG2a-Fc fusion protein (Fc fusion) FKGNCYSFSTVLDSRSFEDAHEFCKSEGSNLLAIRDAAENSFLLEELLAFGSSVQMVWLNAQFDNNNKTLRWFDGTPTEQSNWGLRKPDMDHLKPHPCVVLRIPEGIWHFTPCEDKKGFICKGGGSGGGSGGGS | -0.002 OD | 0.019 OD | -0.005 OD
Pkd1l2 CRD-mouse IgG2a-Fc fusion protein (Fc fusion) not shown | 0.001 OD | 0.001 OD | -0.002 OD
Pla2r1_2 CRD-mouse IgG2a-Fc fusion protein (Fc fusion) FNRKCYKLKKDRKSWLGALHSCQSNDSVLMDVASLAEVEFLVSLLRDENASETWIGLSSNKIPVSFEWSSGSSVIFTNWYPLEPRILPNRRQLCVSAEESDGRWKVKDCKERLFYICKGGGSGGGSGGGS | 0.001 OD | 0.011 OD | -0.019 OD
Ly75_3 CRD-mouse IgG2a-Fc fusion protein (Fc fusion) KDAESDKLCPPDEGWKRHGETCYKIYEKEAPFGTNCNLTITSRFEQEFLNYMMKNYDKSLRKYFWTGLRDPDSRGEYSWAVAQGVKQAVTFSNWNFLEPASPGGCVAMSTGKTLGKWEVKNCRSFRALSICKKGGGSGGGSGGGS | 0.002 OD | 0.001 OD | -0.003 OD
Mrc2_5 CRD-mouse IgG2a-Fc fusion protein (Fc fusion) FQEAEYKFFEHHSSWAQAQRICTWFQADLTSVHSQAELDFLGQNLQKLSSDQEQHWWIGLHTLESDGRFRWTDGSIINFISWAPGKPRPIGKDKKCVYMTARQEDWGDQRCHTALPYICKGGGSGGGSGGGS | -0.002 OD | 0.002 OD | -0.005 OD
